Values joined by “and” are separate entries in the source; they are usually repeats but may differ in a detail not shown here. Equal values may be shown once.
Legend:
[1] = tested on: human microvascular endothelial cells (HMVECs); assay: VEGF-induced migration of HMVECs, modified Boyden chamber; format: cell-based; settings: 100 ng/ml, VEGF 5 ng/ml
Method: Endostatin peptides were tested for anti-endothelial cell migration activity. Inhibition of VEGF-induced migration of human microvascular endothelial cells (HMVECs) was determined using several doses of endostatin peptides (FIG. 5). Human peptides were used because the cells were of human origin and the migration response of the HMVECs was assayed using a modified Boyden chamber. VEGF (5 ng/ml) was used a chemotactic agent and cells were challenged with human endostatin (Entremed; EM-ES), human Fc-Endostatin (nFcES), human P1 (hP1), human P2 (hP2), human P6 (hP6), and human P1-H1/3A (hP1-H1/3A). Total migration per membrane was quantified from the capture images using Scion Image Software (National Institutes of Health) and the unpaired Student T test was used for statistical analysis. […] No significant differences in inhibition between these concentrations were observed. At higher and lower concentrations less or no inhibition was observed. At 500 ng/ml of hP1 no inhibition was observed. Thus, similar to full-length endostatin, there is a U-shaped response to hP1 inhibition of EC migration.
The motility response of HMVEC-d cells was assayed using a modified Boyden chamber. Cells were plated in T75-cm2 flasks at 0.5×10^6 cells per flask and allowed to grow for 48 h (˜70% confluent) prior to the migration assay. To facilitate cell adhesion, the upper membrane of a transwell ([…]; Costar) was coated with fibronectin ([…]; Becton Dickinson, Bedford, Mass.) for 1 h at 37° C. Coated membranes were rinsed with PBS and allowed to air dry immediately before use. Cells were detached by trypsinization, treated with trypsinization neutralization solution (Clonetics), and resuspended at a final concentration of 1×10^6 cells/ml in serum-free endothelial basal medium (EBM; Clonetics) containing 0.1% BSA. Cells (200,000 in 0.2 ml) were then treated with 0.2 ml of EBM/BSA containing endostatin or peptides at the indicated concentrations. Cells were incubated for 20 min. at 37° C. with occasional shaking. Cells (50,000 in 100 μl) were added to the upper chamber of the transwell. EBM or EBM supplemented with VEGF (5 ng/ml) was added to the lower chamber and cells were allowed to migrate toward the bottom chamber for 4 h in a humidified incubator containing 5% CO2. Transwell filters were rinsed once with PBS and fixed and stained using a Diff-Quik staining kit (Baxter) following the manufacturer's protocol. Non-migrated cells were removed from the upper chamber with a cotton swab. Stained filters were cut out of the chamber and mounted onto slides using Permount (Fisher). The number of migrated cells was measured using microscopy (three fields from each membrane were captured using a 40× objective), and images were captured with a CCD camera using SPOT software. Total migration per membrane was quantified from the captured images using Scion Image software (National Institutes of Health). All experiments were run in triplicate. The unpaired Student t-test was used for statistical analysis.

[2] = tested on: human umbilical vein endothelial cells (HUVEC); assay: VEGF stimulated migration of HUVEC, modified Boyden chambers; format: cell-based; settings: FIG. 13
Method: Cell migration assays were performed using modified Boyden chambers (6.5-mm diameter, 10-μm thickness, 8-μm pores, Transwell-Costar Corp., Cambridge, Mass.) coated with 10 μg/ml fibronectin in PBS overnight at 4° C. and rinsed with PBS. Subconfluent cells were trypsinized (0.01% trypsin/5 mM EDTA), neutralized with trypsin neutralization solution (Cascade Biologics Inc., Portland, Oreg.), washed, and resuspended in endothelial basal medium (EBM; Clonetics) with 0.1% BSA in the presence or absence of human endostatin (40, 200, 1000 ng/ml). In a second experiment we added either 600 ng/ml human endostatin or mP-1 at various doses (60, 200, 600 ng/ml). Cells were maintained in suspension for 30 min, added to the top of each migration chamber and allowed to migrate for 4 h in the presence or absence of VEGF (5 ng/ml) in lower chamber. Adherent cells were fixed and stained using the Hema-3 Stain System (Fisher Diagnostics, Middletown, Va.), following manufacturer's instructions. Non-migratory cells were removed with a cotton swab, and the number of migratory cells per membrane was captured using bright field microscopy connected to a Spot digital camera (Diagnostic Instruments, Sterling Heights, Mich.). Migrated cells from the captured image were counted using NIH image software. […]

Female SCID mice = assay: Fertility, pregnancy and offspring in tumor-bearing female SCID mice
Method: Female SCID mice were injected with human pancreatic tumor cells subcutaneously. When tumors reached a volume of approximately 100 mm^3 endostatin or placebo treatment was initiated and continued until the end of the study. After three days, females were mated.
Human BxPC-3 cells were grown in cells culture as described above. After washing with sterile PBS, cells were trypsinized and briefly re-suspended in RPMI 1640 medium containing 10% fetal calf serum (FCS) and 1% glutamine penicillin streptomycin (GPS) solution. After centrifuging, the cell concentration was adjusted to 50×10^6 cells/ml in additive-free RPMI 1640 medium and kept on ice. Female SCID mice were shaved on the dorsal side and the naked skin was cleaned with ethanol prior to injection. A suspension of 5×10^6 cells/ml in 100 μl was then injected subcutaneously into the dorsa of these mice at about one centimetre left of the midline.
Mice were weighed and tumors were measured every 7 days in two diameters using a dial-caliper. Tumor volumes were calculated using the formula a^2×b×0.52, while a being the shorter and b being the longer diameter. When tumors had reached a volume of approximately 100 mm^2 mice were divided into four groups.
During the first experiment, one group received endostatin (20 mg/kg; n=8) or vehicle (n=8) via subcutaneous osmotic pumps (Durect Corp., Cupertino, Calif.). Pumps were inserted via a small incision and placed into a subcutaneous pocket on the right lateral aspect of the animals' dorsa. The pumps were changed every week for a total of four weeks.
The other group received daily subcutaneous injections of endostatin (100 mg/kg, n=5) or vehicle (n=5) for the same period.
During a second study we repeated the experiment with endostatin in subcutaneous pumps. The other group in this series received the murine N-terminal fragment of endostatin (mP-1) at a dose of 2.5 mg/kg twice daily or PBS (n=5 each).
Three days after initiation of treatment female mice were added to a cage containing a male SCID mouse in a 1:1 ratio. All males had been housed separately three days prior to encountering the females and female bedding had been added to the male cages to enhance the males' libido.
For the following seven days every female was checked for a vaginal mucous plug as a sign of mating. These exams were performed during the early morning hours to optimize the results. Once a mucous plug had been noticed, mating was considered ‘successful’, and the female was not further examined in order to minimize iatrogenic stress.
Over the course of pregnancy the following parameters were assessed: ‘Mating Time’ describing the time between male encounter and the occurrence of a mucous plug; ‘Pregnancy Rate’, measured by ultrasound 15 days after the mucous plug was observed. The number of viable fetus was counted during this procedure; ‘Length of Pregnancy’, as measured from the time of successful mating to delivery; ‘Number of Total and Viable Litter’, counted on the day of birth; ‘Weight of Individual Pup’, by weighing the entire litter on the day of birth and calculating the mean weight.

B1: human endostatin (EntreMed): recombinant human endostatin, gift from EntreMed Corporation (protein, listed as Homo sapiens)
chain: HSHRDFQPVLHLVALNSPLSGGMRGIRGADFQCFQQARAVGLAGTFRAFLSSRLQDLYSIVRRADRAAVPIVNLKDELLFPSWEALFSGSEGPLKPGARIFSFNGKDVLTHPTWPQKSVWHGSDPNGRRLTESYCETWRTEAPSATGQAYSLLGGRLLGQSAASCHHAYIVLCIENSFMTASK
inhibition of EC migration [1]: not at 100 ng/ml | migration of HUVEC [2]: inhibit migration | mean length of pregnancy (Female SCID mice; endostatin pumps, two experiments): 20.6 ± 1.2 days and 20.75 ± 2 days | pregnancy rate with live births (Female SCID mice; injection group): 60% | litter size per delivery (Female SCID mice; injection studies, PBS 4.2±2.4): 5±1 | effect on the offspring (Female SCID mice; offspring of treated mice): did not see any negative effect on the offspring | litter size per delivery (Female SCID mice; pump group, PBS 4.6±1.7): 5±1.8 | mean weight of pups on the day of delivery (Female SCID mice; pump groups, PBS 1.4): 1.51 g | mating time (Female SCID mice; s.c. injections (endostatin 100 mg/kg daily; mP-1 2.5 mg/kg twice daily), PBS 1.9±0.9): 2.8 ± 1.5 days | mating time (Female SCID mice; s.c. osmotic pumps (endostatin 20 mg/kg), PBS 2.0±1): 2.6 ± 1.4 days

— US7645735B2, “Anti-angiogenic peptides for treating or preventing endometriosis” (Children's Medical Center Corporation, priority 2003, dated 2010)
